The text below walks through data of publication PMC7438327 (Cell Death & Disease, 2020).

Sequences and labels used below:
B1: cyclophilin D (CypD) WT, rescued in HEK CypD-KO cells (natural protein)
chain: not shown
notes: also called WT group; source: HEK CypD-KO cells (CRISPR/Cas9) rescued with WT CypD, in cells or lysate
B2: cyclophilin D (CypD) phosphomimetic S191E mutant, rescued in HEK CypD-KO cells (natural protein)
chain: not shown
notes: also called phosphomimetic S191E group; source: HEK CypD-KO cells (CRISPR/Cas9) rescued with mutated CypD, in cells or lysate
B3: cyclophilin D (CypD) phosphoresistant S191A mutant, rescued in HEK CypD-KO cells (natural protein)
chain: not shown
notes: also called phosphoresistant S191A group; source: HEK CypD-KO cells (CRISPR/Cas9) rescued with mutated CypD, in cells or lysate
B4: cyclophilin D (CypD) WT tagged with Scarlet (natural protein)
chain: not shown
notes: also called PPIF; source: HEK cells, transfected, in cells
B5: cyclophilin D (CypD) phosphomimetic S191E mutant tagged with Scarlet (natural protein)
chain: not shown
notes: also called phosphomimetic mutant S191E; source: HEK cells, transfected, in cells
B6: cyclophilin D (CypD) phosphoresistant S191A mutant tagged with Scarlet (natural protein)
chain: not shown
notes: source: HEK cells, transfected, in cells

The first test concerns the target T1, oligomycin sensitivity-conferring protein (OSCP), endogenous in HEK cells (human (endogenous in HEK), UniProt P48047 24-213).
T1 construct: OSCP subunit of the mitochondrial ATP synthase, immunoprecipitated or stained in HEK cell lines; also called OSCP subunit of the ATP synthase; source: endogenous, HEK CypD mutant cell lines
T1 sequence (looked up): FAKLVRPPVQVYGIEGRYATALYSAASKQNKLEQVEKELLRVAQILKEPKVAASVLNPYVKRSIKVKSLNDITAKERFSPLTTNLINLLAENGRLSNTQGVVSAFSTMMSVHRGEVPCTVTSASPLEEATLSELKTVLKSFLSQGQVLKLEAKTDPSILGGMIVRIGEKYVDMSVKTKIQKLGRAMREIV
As to the kind of experiment: co-IP; OSCP immunoprecipitation in HEK CypD mutant cell lines, immunoblots of CypD and OSCP; quantified as fold vs. WT. Particulars: partners not purified. On the technique in general: Immunoblotting shows a protein as a band on a membrane.
For the molecule B1, the “CypD co-immunoprecipitated with OSCP, fold vs. WT” value is 1 fold vs. WT.
Still for that read-out and setting: next, B2: 1.48 fold vs. WT; B3: 0.65 fold vs. WT.

In the next test the target is T2, oligomycin sensitivity-conferring protein (OSCP) tagged with Clover GFP (UniProt P48047 24-213).
T2 construct: OSCP subunit of the mitochondrial ATP synthase; One vector carries OSCP-Clover and, downstream of an IRES, CypD-Scarlet; also called OSCP-Clover; OSCP subunit of the ATP synthase; source: HEK cells, transfected, in cells
T2 sequence (looked up): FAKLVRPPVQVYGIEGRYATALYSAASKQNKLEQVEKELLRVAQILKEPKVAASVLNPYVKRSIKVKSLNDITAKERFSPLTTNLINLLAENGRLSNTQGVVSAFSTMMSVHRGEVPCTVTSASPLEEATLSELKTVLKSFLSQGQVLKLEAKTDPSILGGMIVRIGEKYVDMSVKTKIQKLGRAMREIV
As to the kind of experiment: FRET or BRET; HEK cells transfected with OSCP-Clover and WT or mutant CypD-Scarlet downstream of an IRES; excitation 458 nm, emission 505-540 nm and 575-620 nm; FRET ratio. The conditions noted are these: partners not purified. (In BRET a luciferase serves as donor, and the signal depends on an acceptor being close.)
For B4, the FRET ratio stood at 1.92.
As for B5, the FRET ratio turned out to be 2.44.
The same measure, in the same setting: the figure for B6 is 1.29.
